Measurements from patent US20040214757.

Key:
Experiment in all cases: EMSA
[1] = target: Oct-2 truncated at StuI (cDNA 655-1443) (Homo sapiens, UniProt P09086 SEQ:199-461)
Method: (§1) The polypeptides translated in vitro from these RNAs were tested for specific DNA binding by addition of the total translation mix to the DNA-protein gel assay.

[2] = target: T1, Oct-2 truncated at PstI (cDNA 655-1134) (Homo sapiens, UniProt P09086 SEQ:199-358)
T1 sequence: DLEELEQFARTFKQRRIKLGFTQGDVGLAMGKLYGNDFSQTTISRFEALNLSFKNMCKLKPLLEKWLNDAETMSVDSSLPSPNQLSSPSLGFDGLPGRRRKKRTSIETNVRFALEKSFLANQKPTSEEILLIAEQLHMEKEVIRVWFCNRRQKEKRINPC
Method: as §1

[3] = target: Oct-2 (pBS-ATG-oct-2, cDNA 655-1710) (Homo sapiens, UniProt P09086 SEQ:199-466)
Method: as §1

Measured: binding result

B1: OCTA octanucleotide probe (dsDNA)
DNA 1: ATGCAAAT
DNA 2: ATTTGCAT
binds: all assays above
